Data from US7429646.

Target: its ligand (ligand of TR2, not identified)
Assay: cell-based or functional assay

TR2-Fc fusion protein (TR2 extracellular domain fused to human IgG1 Fc, pcDNA3, NIH 3T3) (from UniProt Q92956 37-200)
allogeneic MLR-mediated proliferation of PBMC ([3H]-thymidine incorporation): < 53%
